Reference: patent US20160311919A1

How the values were obtained:
[1] = molecular target: GPNMB-V5His (recombinant human GPNMB extracellular domain with C-terminal V5-His tag) (human) (UniProt Q14956); test: ELISA, coated GPNMB, Ab 111 ng/mL
[2] = molecular target: GPNMB-V5His (recombinant human GPNMB extracellular domain with C-terminal V5-His tag) (human) (UniProt Q14956); test: ELISA, coated GPNMB, Ab 3 ug/mL
[3] = molecular target: GPNMB-V5His (recombinant human GPNMB extracellular domain with C-terminal V5-His tag) (human) (UniProt Q14956); test: ELISA, coated GPNMB, Ab 12.3 ng/mL
[4] = molecular target: GPNMB-V5His (recombinant human GPNMB extracellular domain with C-terminal V5-His tag) (human) (UniProt Q14956); test: ELISA, coated GPNMB, Ab 1 ug/mL
[5] = molecular target: GPNMB-V5His (recombinant human GPNMB extracellular domain with C-terminal V5-His tag) (human) (UniProt Q14956); test: ELISA, coated GPNMB, Ab 333 ng/mL
[6] = molecular target: GPNMB-V5His (recombinant human GPNMB extracellular domain with C-terminal V5-His tag) (human) (UniProt Q14956); test: ELISA, coated GPNMB, Ab 37 ng/mL
[7] = molecular target: GPNMB-V5His (recombinant human GPNMB extracellular domain with C-terminal V5-His tag) (human) (UniProt Q14956); test: SPR (Biacore), mAb on protein A, GPNMB 880 nM

Avg OD [1]	Avg OD [2]	Avg OD [3]	Avg OD [4]	Avg OD [5]	Avg OD [6]	Kd [7]	koff [7]	kon [7]	Binder
–	–	–	–	–	–	122 nM	0.00144 s⁻¹	11800 M⁻¹ s⁻¹	Mab1.7.1 (antibody, human IgG2, V domains shown) VH: QVQLQESGPGLVKPSQTLSLTCTVSGGSISSANYYWTWIRQHPGKGLEWIGYIYYSGSTYCNPSLKSRVIISVDTSKNQFSLKLSSVTAADTAVYYCARGYNWNYFDYWGQGTLVTVSS VL: DIVMTQSPATLSVSPGERATLSCRASQSVSSNLAWYQERPGQAPRLLIYGASTRATGIPARFSGSGSGTEFTLTISSLQSEDFAVYYCQQYNKWPPWTFGQGTKVEIER
–	–	–	–	–	–	118 nM	0.000466 s⁻¹	3960 M⁻¹ s⁻¹	Mab1.10.2 (antibody, human IgG2, V domains shown) VH: QVQLQESGPGLVKPSETLSLTCTVSGDSISNYYWSWIRQPPGKGLEWIGYFYYSGSTNYNPSLKSRVTISVDTSKNQFSLKLSSVTAADTAVYYCARDRGWADYWGQGTLVTVSS VL: EIVLTQSPGTLSLSPGERATLSCRTSQSISSSYLAWYQQKPGQVPRLLIYGASSRATGIPDRFSGSGSGTDFTLTISRLEPEDFAVYYCQQYGSSITFGQGTRLEIKR
0.199 OD	0.763 OD	0.049 OD	0.499 OD	0.356 OD	0.094 OD	96 nM	0.00089 s⁻¹	9260 M⁻¹ s⁻¹	Mab1.2.2 (antibody, human IgG2, V domains shown) VH: ITLKESGPTLVKPTQTLTLTCTFSGFSLSAGGVGVGWIRQPPGKALEWLALIYWNDDKRYSPSLRSRLTITKDTSKNQVVLTITNMDPVDTATYYCAHSHYDYDWGSYFDYWGQGTLVTVSS VL: DIVMTQTPLSLPVTPGEPASISCRSSQSLLDSDDGNTYLDWYLQKPGQSPQLLIYTLSYRASGVPDRFSGSGSGTDFTLNISRVEAEDVGVYYCMQRIEFPITFGQGTRLEIKR

The remaining lines, values behind:

Binder	Avg OD [1]	Avg OD [2]	Avg OD [3]	Avg OD [4]	Avg OD [5]	Avg OD [6]	Kd [7]	koff [7]	kon [7]
2-17 (hybridoma of Table 6) (antibody, V domains shown) VH: QLVQSGAEVKKPGASVKVSCKASGYTFTGFYMHWVRQTPGQGLEWMGWINPNSGGTYYVQKFQGRVTMTRDTSISTVYMELSRLRSDDTAVYYCARDGYSSGEDWFDPWGQGTLVTVSS VL: DIVMTQTPLSLSVTPGQPASISCKSSQSLLHSGGKTYLYWYLQRPGQPPQLLIYEVSNRFSGVPDRFSGSGSGTDFTLKISRVEAEDVGVYYCMQSIHLPLTFGGGTKVEIKR	0.009 OD	0.053 OD	0.011 OD	0.019 OD	0.01 OD	0.008 OD	–	–	–
2-16 (hybridoma of Table 6) (antibody, V domains shown) VH: QVQLVESGGGLVKPGGSLRLSCAASGFTFSDYYMTWIRQAPGKGLEWVSYISISGSITHYADSVKGRFTMSRDNAKNSLYLQMNSLRAEDTAVYYCARDGAAAGTDAFDIWGHGTKVTVSS VL: EIVMTQSPATLSVSPGDRATLSCRASQNVSSNLAWYQQKPGQAPRLLIFGASTRATGIPARFSGSGSGTEFTLTISSLQSEDFAVYYCQQYHYWPTFGPGTKVDIKR	0.032 OD	0.359 OD	0.011 OD	0.173 OD	0.068 OD	0.017 OD	–	–	–
2-22 (hybridoma of Table 6) (antibody, V domains shown) VH: QVQLEQSGPGLVKPSQNLSLTCTVSGGSISSGGYFWSWIRQHPGKGLEWIGYIYYSGNTYYNPSLKSRVTISVDTSKNQFSLKLSSVTAADTAVYYCARDYYYDTSGFSYRYDWYYGMDVWGQGTTVTVSS VL: DIQLTQSPSSLSASVGDRVTITCRASQGIRNDLGWYQQKPGKAPKRLIYAASSLQNGVPSRFSGSGSGTEFTLTISSLQPEDFATYYCLQHNTYPAFGQGTKVEIKR	0.355 OD	0.714 OD	0.068 OD	0.707 OD	0.538 OD	0.171 OD	–	–	–
1.7.3 (antibody, V domains shown) VH: QVQLQESGPGLVKPSQTLSLTCTVSGGSISSANYYWTWIRQHPGKGLEWIGYIYYSGSTYCNPSLKSRVIISVDTSKNQFSLKLSSVTAADTAVYYCARGYNWNYFDYWGQGTLVTVSS VL: DIVMTQSPATLSVSPGERATLSCRASQSVSSNLAWYQERPGQAPRLLIYGASTRATGIPARFSGSGSGTEFTLTISSLQSEDFAVYYCQQYNKWPPWTFGQGTKVEIER	0.451 OD	1 OD	0.094 OD	0.871 OD	0.76 OD	0.239 OD	121 nM	0.00117 s⁻¹	9650 M⁻¹ s⁻¹
2-7 (hybridoma of Table 6) (antibody, V domains shown) VH: QVQLEQSGGGVVQPGRSLRLSCAASGFTFNNYGMHWVRQAPGKGLEWVAVIWYDGSNKYYADSVKGRFTISRDNSKNTLYLQMNSLRAEDTAVYYCAKDEEYYYVSGLDYWGQGTLVTVSS VL: LTQSPSSLSASVRDRVTITCRASQDISNYLAWYQQKPGKVPNLLIYAASTLQSGVPSRFSGSGSGTDFTLTISSLQPEDVATYYCQKYNSAPLTFGGGTKVEIKR	0.494 OD	0.827 OD	0.156 OD	0.719 OD	0.68 OD	0.308 OD	–	–	–
2-15 (hybridoma of Table 6) (antibody, V domains shown) VH: QVQLVESGGGVVQPGRSLRLSCAASGFTFSNYGIHWVRQAPGKGLEWVAVIWFDGRNKYYADSVKGRFTISRDNSKNTLYLQMNSLRAEDAAVYYCARDPFDYGDSFFDYWGQGTLVTVSS VL: LTQSPSSLSASVRDRVTITCRASQDISNYLAWYQQKPGKVPNLLIYAASTLQSGVPSRFSGSGSGTDFTLTISSLQPEDVATYYCQKYNSAPLTFGGGTKVEIKR	0.395 OD	0.601 OD	0.127 OD	0.568 OD	0.578 OD	0.246 OD	–	–	–
GPNMB antibody (1.10.1) (antibody, V domains shown) VH: QVQLQESGPGLVKPSETLSLTCTVSGDSISNYYWSWIRQPPGKGLEWIGYFYYSGSTNYNPSLKSRVTISVDTSKNQFSLKLSSVTAADTAVYYCARDRGWADYWGQGTLVTVSS VL: EIVLTQSPGTLSLSPGERATLSCRTSQSISSSYLAWYQQKPGQVPRLLIYGASSRATGIPDRFSGSGSGTDFTLTISRLEPEDFAVYYCQQYGSSITFGQGTRLEIKR	–	–	–	–	–	–	209 nM	0.000885 s⁻¹	4240 M⁻¹ s⁻¹
